Laboratory results reported in EP3583122A1 (dated 2019).

How the values were obtained:
Experiment in all cases: cell-based or functional assay
[1] = biological target: T1, EBOV GP on rVSV particles (Ebola virus (EBOV), UniProt Q05320 33-676)
T1 sequence: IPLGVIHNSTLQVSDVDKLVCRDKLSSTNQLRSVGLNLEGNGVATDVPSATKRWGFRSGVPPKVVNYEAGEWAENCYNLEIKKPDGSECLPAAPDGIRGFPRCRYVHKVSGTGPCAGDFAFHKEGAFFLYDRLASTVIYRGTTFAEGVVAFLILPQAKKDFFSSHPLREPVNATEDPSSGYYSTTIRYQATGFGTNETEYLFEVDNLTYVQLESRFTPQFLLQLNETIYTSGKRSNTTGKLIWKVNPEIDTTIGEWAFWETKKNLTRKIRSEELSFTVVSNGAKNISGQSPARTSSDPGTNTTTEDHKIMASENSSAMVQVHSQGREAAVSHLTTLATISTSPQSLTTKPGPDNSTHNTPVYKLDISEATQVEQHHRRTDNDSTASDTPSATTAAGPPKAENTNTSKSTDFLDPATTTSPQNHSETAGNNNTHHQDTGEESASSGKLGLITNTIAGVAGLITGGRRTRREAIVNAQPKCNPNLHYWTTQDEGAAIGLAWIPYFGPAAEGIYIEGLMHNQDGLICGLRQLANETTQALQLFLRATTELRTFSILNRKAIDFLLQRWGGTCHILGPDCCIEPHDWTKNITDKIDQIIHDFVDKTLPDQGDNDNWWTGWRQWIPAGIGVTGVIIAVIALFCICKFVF

[2] = biological target: BDBV GP on rVSV particles (Bundibugyo virus (BDBV))
[3] = biological target: T2, TAFV GP on VSV pseudotype particles (Tai Forest virus (TAFV), UniProt Q66810 33-676)
T2 sequence: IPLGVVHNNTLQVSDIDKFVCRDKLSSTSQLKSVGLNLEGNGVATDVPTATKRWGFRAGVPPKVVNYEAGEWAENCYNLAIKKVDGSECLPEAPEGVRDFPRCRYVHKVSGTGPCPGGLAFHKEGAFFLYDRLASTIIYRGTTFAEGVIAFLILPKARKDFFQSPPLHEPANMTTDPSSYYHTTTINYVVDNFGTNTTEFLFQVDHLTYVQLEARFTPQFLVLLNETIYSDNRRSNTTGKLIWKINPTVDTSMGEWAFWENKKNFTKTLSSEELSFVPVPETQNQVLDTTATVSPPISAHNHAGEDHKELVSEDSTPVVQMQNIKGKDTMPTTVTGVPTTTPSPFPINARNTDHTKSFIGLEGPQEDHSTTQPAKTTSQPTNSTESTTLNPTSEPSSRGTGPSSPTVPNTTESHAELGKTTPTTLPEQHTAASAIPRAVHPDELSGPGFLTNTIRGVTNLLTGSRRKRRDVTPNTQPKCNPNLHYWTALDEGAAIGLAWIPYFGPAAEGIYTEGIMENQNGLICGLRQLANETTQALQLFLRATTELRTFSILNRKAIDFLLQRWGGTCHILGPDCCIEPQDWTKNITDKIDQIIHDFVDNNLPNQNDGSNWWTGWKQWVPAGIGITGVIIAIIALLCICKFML

[4] = biological target: T3, SUDV GP on rVSV particles (Sudan virus (SUDV), UniProt Q66814 33-676)
T3 sequence: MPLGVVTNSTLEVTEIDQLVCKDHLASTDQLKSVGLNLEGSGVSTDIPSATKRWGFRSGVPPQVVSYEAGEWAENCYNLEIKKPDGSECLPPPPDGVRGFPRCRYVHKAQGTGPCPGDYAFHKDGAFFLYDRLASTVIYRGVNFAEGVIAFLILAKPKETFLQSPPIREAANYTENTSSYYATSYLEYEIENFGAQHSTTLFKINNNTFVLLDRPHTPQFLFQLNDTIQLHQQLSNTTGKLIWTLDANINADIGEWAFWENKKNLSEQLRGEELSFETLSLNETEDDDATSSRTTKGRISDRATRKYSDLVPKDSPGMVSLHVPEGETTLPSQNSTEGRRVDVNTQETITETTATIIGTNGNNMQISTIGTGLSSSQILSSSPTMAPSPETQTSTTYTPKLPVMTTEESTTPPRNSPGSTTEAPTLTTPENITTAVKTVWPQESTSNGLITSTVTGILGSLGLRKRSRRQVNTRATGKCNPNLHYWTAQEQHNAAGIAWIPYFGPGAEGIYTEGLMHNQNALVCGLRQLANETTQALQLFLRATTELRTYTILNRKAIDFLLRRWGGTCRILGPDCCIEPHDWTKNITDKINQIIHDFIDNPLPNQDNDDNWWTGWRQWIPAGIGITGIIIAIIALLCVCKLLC

[5] = biological target: T4, RESTV GP on rVSV particles (Reston virus (RESTV), UniProt Q66799 34-677)
T4 sequence: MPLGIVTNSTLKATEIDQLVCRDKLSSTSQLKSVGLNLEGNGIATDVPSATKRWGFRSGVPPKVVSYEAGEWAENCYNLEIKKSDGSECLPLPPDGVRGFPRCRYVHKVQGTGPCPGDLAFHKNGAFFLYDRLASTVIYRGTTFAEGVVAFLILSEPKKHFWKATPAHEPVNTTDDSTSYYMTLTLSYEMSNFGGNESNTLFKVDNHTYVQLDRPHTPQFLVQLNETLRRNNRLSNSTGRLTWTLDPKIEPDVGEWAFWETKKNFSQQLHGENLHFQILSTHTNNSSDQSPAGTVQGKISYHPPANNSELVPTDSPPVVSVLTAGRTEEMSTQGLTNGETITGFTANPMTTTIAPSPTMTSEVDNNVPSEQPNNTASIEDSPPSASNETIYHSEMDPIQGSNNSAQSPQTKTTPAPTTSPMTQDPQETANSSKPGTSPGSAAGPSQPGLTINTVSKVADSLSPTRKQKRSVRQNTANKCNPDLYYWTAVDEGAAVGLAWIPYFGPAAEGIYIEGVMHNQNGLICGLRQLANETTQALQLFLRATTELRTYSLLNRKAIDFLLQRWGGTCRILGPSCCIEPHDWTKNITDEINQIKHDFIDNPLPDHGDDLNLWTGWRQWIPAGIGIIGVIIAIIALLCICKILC

B1: mAb PE-87 (antibody, V domains shown)
VH: QVQLVQSGVTLVQPGGSLRVSCAASGFTFSSYAMSWVRQAPGKGLEWVSAISGLGGSTYYADSVKGRFTISRDNSKNTLYLQMNSLRAEDTAVYYCAKDHRVWAAGYHFDYWGQGALVTVSS
VL: DIVLTQSPSTLSASVGDRVTITCRASQSISSWLAWYQQKPGEAPKLLISDASSLESGVPSRFSGSGSGTEFTLTISSLQPDDFATYYCQQYYSSPTFGGGTKVEIK
- IC50, half-maximal neutralization of viral infectivity (rVSV-GP) [1]: 1 nM
- IC50, half-maximal neutralization of viral infectivity (rVSV-GP) [2]: 0.4 nM
- IC50, half-maximal neutralization of viral infectivity (rVSV-GP) [3]: 0.9 nM
- IC50, half-maximal neutralization of viral infectivity (rVSV-GP) [4]: 0.8 nM
- IC50, half-maximal neutralization of viral infectivity (rVSV-GP) [5]: 0.1 nM
